Experimental data reported in publication PMC4205158 (Structure (London, England : 1993), 2008).
Entries after “also recorded” stand apart in the source; their conditions may differ.

Key:
[1] = biological target: Rad9(pT192) peptide
[2] = system: IRAK1b; test: GST-pulldown of IRAK1b; details: qualitative; HEK293T lysates; kinase-inactive IRAK1b
[3] = biological target: IRAK1-ki; test: GST-pulldown of kinase-inactive mutant IRAK1-ki; details: qualitative, HEK293T lysates

Purified Pellino2 (from UniProt Q9HAT8 1-420) (natural protein)
Kd [1]: > 100 µM

B1: Pellino2: GST-fusion protein of full-length Pellino2 (human cDNA) (protein)
chain: MFSPGQEEHCAPNKEPVKYGELVVLGYNGALPNGDRGRRKSRFALYKRPKANGVKPSTVHVISTPQASKAISCKGQHSISYTLSRNQTVVVEYTHDKDTDMFQVGRSTESPIDFVVTDTISGSQNTDEAQITQSTISRFACRIVCDRNEPYTARIFAAGFDSSKNIFLGEKAAKWKNPDGHMDGLTTNGVLVMHPRGGFTEESQPGVWREISVCGDVYTLRETRSAQQRGKLVESETNVLQDGSLIDLCGATLLWRTADGLFHTPTQKHIEALRQEINAARPQCPVGLNTLAFPSINRKEVVEEKQPWAYLSCGHVHGYHNWGHRSDTEANERECPMCRTVGPYVPLWLGCEAGFYVDAGPPTHAFTPCGHVCSEKSAKYWSQIPLPHGTHAFHAACPFCATQLVGEQNCIKLIFQGPID
modifications: left off: His6, N-terminal, cleaved
interaction with IRAK1b in GST-pulldown [2]: are not precipitated; also recorded: do not interact
interaction with IRAK1-ki in GST-pulldown [3]: are not precipitated; also recorded: do not interact
